Biological target: T1, recombinant human ST2 Fc chimera (ALX-201-367-C050, Enzo Life Science) (human, UniProt Q01638 19-328)
T1 construct: bought; also called human IL-33 receptor protein; human IL-33 receptor (ST2)
T1 sequence (looked up): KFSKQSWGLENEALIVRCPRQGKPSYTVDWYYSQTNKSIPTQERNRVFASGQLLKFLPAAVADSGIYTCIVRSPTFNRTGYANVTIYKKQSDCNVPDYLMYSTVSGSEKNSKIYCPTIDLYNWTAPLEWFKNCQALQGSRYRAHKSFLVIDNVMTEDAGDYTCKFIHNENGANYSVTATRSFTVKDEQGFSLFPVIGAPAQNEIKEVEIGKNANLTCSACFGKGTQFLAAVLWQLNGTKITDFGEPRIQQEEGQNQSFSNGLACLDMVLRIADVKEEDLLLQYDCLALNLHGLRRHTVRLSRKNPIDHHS
Assay: SPR (ProteOn), hIL-33 on chip, ST2 Fc chimera as analyte
Source text: Each peptide was N-terminally biotinylated, and was immobilized as ligand onto a NeutrAvidin sensor chip of a surface plasmon resonance (SPR) system (ProteOn XPR36, available from Bio-Rad Laboratories, Inc.). […] The resulting protein (hIL-33) as a ligand was immobilized onto the SPR sensor chip. Each test antibody, the human IL-33 receptor protein (recombinant human ST2 Fc chimera) (ALX-201-367-C050, available from Enzo Life Science, Inc.), or buffer (0.05% Tween20/PBS) alone was then loaded as an analyte onto the sensor chip containing the ligand immobilized thereon (antibody concentration: […]; flow rate: 100 μl/min), to allow them to bind to the ligand. After washing, the amount of analyte (amount of antibody) bound to the ligand on the sensor chip was measured as RU value.

- binding result: binds
B1: mature human IL-33 (residues 112 to 270) N-terminally linked with the Avitag sequence, biotinylated (ligand, not shown: small tags and cut ends)
chain: SITGISPITEYLASLSTYNDQSITFALEDESYEIYVEDLKKDEKKDKVLLSYYESQHPSNESGDGVDGKMLMVTLSPTKDFWLHANNKEHSVELHKCEKPLPDQAFFVLHNMHSNCVSFECKTDPGVFIGVKDNHLALIKVDSSENLCTENILFKLSET
modifications: biotin on the AviTag sequence (biotin ligase reaction)
notes: also called hIL-33
